Stoichiometry N data for 10 substances are collected here from PMC5494296.

Several values for one entry are separate records, joined by “and”; a condition that tells them apart may be missing. Equal values may be shown once.

Assay in all cases: SEC; size-exclusion chromatography of the tag-free proteins after cleavage of the MBP fusion proteins with factor Xa; self-association (oligomeric state); SEC data not shown
The target in experiment [1] is Y138A full-length human phenylalanine hydroxylase (human) (UniProt P00439).
Experiment [2] concerns the target Y138E full-length human phenylalanine hydroxylase (human) (UniProt P00439).
In experiment [3] the target is Y138F full-length human phenylalanine hydroxylase (human) (UniProt P00439).
Experiment [4] addresses Y138K full-length human phenylalanine hydroxylase (human) (UniProt P00439).
The target of experiment [5] is double truncated form ΔN102/ΔC24-hPAH (catalytic domain of human phenylalanine hydroxylase) (human) (UniProt P00439).
Experiment [6] has as its target wild-type human phenylalanine hydroxylase, full-length (wt-hPAH) (human) (UniProt P00439).
For experiment [7], the target named is ΔN102/ΔC24-Y138A human phenylalanine hydroxylase catalytic domain (human) (UniProt P00439).
For experiment [8], the target named is ΔN102/ΔC24-Y138E human phenylalanine hydroxylase catalytic domain (human) (UniProt P00439).
Experiment [9] concerns the target ΔN102/ΔC24-Y138F human phenylalanine hydroxylase catalytic domain (human) (UniProt P00439).
For experiment [10], the target named is ΔN102/ΔC24-Y138K human phenylalanine hydroxylase catalytic domain (human) (UniProt P00439).

“Y138A full-length human phenylalanine hydroxylase (from UniProt P00439 1-452) (enzyme)”: in experiment [1], the stoichiometry N – broadly, the number of molecules, sites or subunits per partner or assembly – was 4 and 2.
With “Y138E full-length human phenylalanine hydroxylase (from UniProt P00439 1-452) (enzyme)”, the stoichiometry N in [2] is 4 and 2.
Turning to “Y138F full-length human phenylalanine hydroxylase (from UniProt P00439 1-452) (enzyme)”, the stoichiometry N in [3] is 4 and 2.
Turning to “Y138K full-length human phenylalanine hydroxylase (from UniProt P00439 1-452) (enzyme)”, in experiment [4], the stoichiometry N is 2 and 4.
In turn, “double truncated form ΔN102/ΔC24-hPAH (catalytic domain of human phenylalanine hydroxylase) (from UniProt P00439 103-428) (domain or fragment)” gave a stoichiometry N in experiment [5] of 2.
As for “wild-type human phenylalanine hydroxylase, full-length (wt-hPAH) (from UniProt P00439 1-452) (enzyme)”, the stoichiometry N in experiment [6] was 4 and 2.
“ΔN102/ΔC24-Y138A human phenylalanine hydroxylase catalytic domain (from UniProt P00439 103-428) (domain or fragment)” showed a stoichiometry N in [7] of 2.
For “ΔN102/ΔC24-Y138E human phenylalanine hydroxylase catalytic domain (from UniProt P00439 103-428) (domain or fragment)”, the stoichiometry N in experiment [8] stood at 2.
“ΔN102/ΔC24-Y138F human phenylalanine hydroxylase catalytic domain (from UniProt P00439 103-428) (domain or fragment)”: in [9], the stoichiometry N is 2.
“ΔN102/ΔC24-Y138K human phenylalanine hydroxylase catalytic domain (from UniProt P00439 103-428) (domain or fragment)” came in with a stoichiometry N in experiment [10] of 2.
